This data set concerns the target T1, RcFRSL3 (UniProt A0A2P6RRT4 1-153).
T1 sequence: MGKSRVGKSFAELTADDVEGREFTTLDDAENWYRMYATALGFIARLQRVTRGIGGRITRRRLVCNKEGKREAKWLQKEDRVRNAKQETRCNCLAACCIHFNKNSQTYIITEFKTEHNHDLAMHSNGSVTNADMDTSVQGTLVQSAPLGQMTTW
The experiment in a line: EMSA; Light Shift Chemiluminescent EMSA kit (buffer per manufacturer), about 2 ug protein, 24 C, 20 min; 6% native PAGE in 0.5x TBE; pH and salt not given. The following applies: protein: recombinant; tags: GST (pGEX4T-1) per construct section; called His-RcFRSL3 in EMSA section; label: 3' biotin on both strands; blunt. A general note: In EMSA bound probe runs differently from free probe, usually more slowly.

From PMC11979331, “RcSRR1 interferes with the RcCSN5B-mediated deneddylation of RcCRL4 to modulate RcCO proteolysis and prevent rose flowering under red light” come the findings set out here.

B1: RcSRR1 promoter G-box probe (dsDNA)
DNA 1: TTCAGGTACCGTATTCACGTTTTTCGAAGTTCAGGTACTA
DNA 2: TAGTACCTGAACTTCGAAAAACGTGAATACGGTACCTGAA
For B1, the binding result is given as “binds”.
